# Results: PMC7943553 (2021)
# How the values were obtained:
# 256257 [1] = test: BLI
# 340341 [2] = test: BLI
# 267268 [3] = test: BLI
# 254255 [4] = test: BLI
# 326327 [5] = test: BLI
# 252248 [6] = test: BLI
# 262231 [7] = test: BLI
# 346343 [8] = test: BLI
# 239229 [9] = test: BLI
# 277278 [10] = test: BLI
# 279280 [11] = test: BLI
# 260261 [12] = test: BLI
# 335338 [13] = test: BLI
# 250233 [14] = test: BLI
# 281282 = test: BLI
# 256257 [15] = test: BLI; representative sensorgram
# 340341 [16] = test: BLI; representative sensorgram
# 267268 [17] = test: BLI; representative sensorgram
# 254255 [18] = test: BLI; representative sensorgram
# 326327 [19] = test: BLI; representative sensorgram
# 252248 [20] = test: BLI; representative sensorgram
# 262231 [21] = test: BLI; representative sensorgram
# 346343 [22] = test: BLI; representative sensorgram
# 239229 [23] = test: BLI; representative sensorgram
# 277278 [24] = test: BLI; representative sensorgram
# 279280 [25] = test: BLI; representative sensorgram
# 260261 [26] = test: BLI; representative sensorgram
# 335338 [27] = test: BLI; representative sensorgram
# 250233 [28] = test: BLI; representative sensorgram
binder,measurement,setting,value
"P. vivax Reticulocyte Binding Protein 2b, residues 161–1454 (domain or fragment, DyLight 488 (NHS ester) in the FRET assay; biotin (BirA site) in the competition ELISA between human mAbs) PSPESTQITNTTDNIDYFDISDESNYYLISQLRPHFSNIYFFDEFKRYASYHTEIKRYEDIHKTKVNSLLNEASRAIGICNRAKNTVKGLINILENPQKFKTQRESYDVKLRQYEEKKEAFRGCLLNKNRKNLDQIKKINNEIRDLLEKLKCSQDCQTNVYFDMIKIYLVDFKKMPYENYDTFIKQYKNSYLSGVDMIRKIEKQIDNPVTINAIKFTQKEMGYIIDRFEYHLQKVKHSIDQVTALSDGVKPKQVTKNRLKEYYFNIGNYYSIFKFGKDSLNMLNKALIHKEKIVHNLLGELFGHLEERISKLIDSEYFITESNNIISQSEETLKLAEDVYDKNTKLIEDLTLYPHLEINEFKKDYDNNVEDLRESIIYIQSYVSSIKSAYRYNVLEKDSVESKQKNIPANSNAQKKVDELLSIIDSISYSNFSVAENFQKMKDYYKEIEKLKIKILQLIEAIKKYQQHVEELINKEKAVAILKEDINKIIEYIKGIIEKLKQLISANKDFDKIFQQVEQLINEALFNKDQFEHNKNDLHTKMKEIMHTFHERDLQQFLDNMSKFLKDQEASYQNADSKEKLDQLLTTVKAKQDELKEMKCDDIPDIIDNLKKESQNVLNLKDEVINKQFENMRTEMSSSLDQMTKEYNALKSSIEEYEAEKKGIENHKQNIIKRKNTFIVAEHENDEDVPEGKNTYNEFISNKDTILQKESAISNQMNTLEEKKRNRKTTLQTYGDAIQKLETYTEKKDEETKVLLDKFNTEVENFKLDEDEKSFNDAKSIVSNTINEVENENKNIDSIKKVNIAMKRSRSNQQSVEQLIRNKDNLLKEKMEKHFQKINTDEIIGQSAKANLLNNLESEKAIINEQLNDAHLNDLKLQIEKTLSYCEKSRENIKGNNGTHPEELNASEIEWEATKGKIETLNSNYQALNKNMDDIINKQHDEMIVLIDRDIKEKGKDIELKVEQRIQALEKMKAKLSSFDTNEDVKKYQSDINKEELIKLKEMSTAVLNKIDQNKNQLINVKTKSSGYVAESNGIKNKQTEPSQEKDKQIVYNTNRGDIEKVYKNIRDMYNELDDVEKEETTSNEVDNIEMQYDRLLINLLVQKINEENTKAKGLMEEIKSYIENIESVQAKMSDETREGATEFEFNQYQQSSLANDKKITEIVQHAINKKGEAERSKKTNEVKSIKNDVNTYMQQVIDEYNAMQKALGDIKNVNDLLISTSGRRIAEEISKSTNEAENFEKQAKGELGKINDIIEKMENQMVQAKEHENKIHINLEDKQIDEEVQKIRQIHEE",Kd,256257 [1],< 10 pM
same,koff,256257 [1],< 1e-06 s⁻¹
same,Kd,340341 [2],107 pM
same,koff,340341 [2],3.85e-05 s⁻¹
same,Kd,267268 [3],213 pM
same,koff,267268 [3],5.71e-05 s⁻¹
same,Kd,254255 [4],74.2 pM
same,koff,254255 [4],2.52e-05 s⁻¹
same,Kd,326327 [5],642 pM
same,koff,326327 [5],0.000246 s⁻¹
same,Kd,252248 [6],586 pM
same,koff,252248 [6],0.000193 s⁻¹
same,Kd,262231 [7],140 pM
same,koff,262231 [7],6.22e-05 s⁻¹
same,Kd,346343 [8],< 10 pM
same,koff,346343 [8],< 1e-06 s⁻¹
same,Kd,239229 [9],112 pM
same,koff,239229 [9],4.6e-05 s⁻¹
same,Kd,277278 [10],79.6 pM
same,koff,277278 [10],3.08e-05 s⁻¹
same,Kd,279280 [11],727 pM
same,koff,279280 [11],0.000194 s⁻¹
same,Kd,260261 [12],20.5 pM
same,koff,260261 [12],6.23e-06 s⁻¹
same,Kd,335338 [13],78.2 pM
same,koff,335338 [13],3.08e-05 s⁻¹
same,Kd,250233 [14],988 pM
same,koff,250233 [14],0.00035 s⁻¹
same,Kd,281282,27.3 pM
same,koff,281282,6.03e-06 s⁻¹
same,Kd,256257 [15],< 10 pM
same,Kd,340341 [16],79.4 pM
same,Kd,267268 [17],300 pM
same,Kd,254255 [18],15.7 pM
same,Kd,326327 [19],500 pM
same,Kd,252248 [20],300 pM
same,Kd,262231 [21],100 pM
same,Kd,346343 [22],< 10 pM
same,Kd,239229 [23],100 pM
same,Kd,277278 [24],18.9 pM
same,Kd,279280 [25],800 pM
same,Kd,260261 [26],< 10 pM
same,Kd,335338 [27],50.5 pM
same,Kd,250233 [28],1000 pM
